Laboratory results reported in PMC5855135 (Chemical Science, 2017).
Where a chain is given by its changes, count along the chain named. Names may count otherwise.

Columns and labels:
[1] = tested on: CcpA2CS (Staphylococcus aureus Newman); experiment: BLI; settings: BLI: 25 mM Tris-HNO3, 80 mM NaNO3, 35 mM KNO3, 10 mM Mg(NO3)2, 0.1% Triton X-100, 10% glycerol, 0.1% BSA, 0.01% Tween 20, pH 7.5, 37 C; EMSA: 35 nM DNA in …
[2] = tested on: CcpA (SaCcpA) (Staphylococcus aureus Newman); experiment: BLI; settings: no Ag+; 10 mM Mg2+; BLI: 25 mM Tris-HNO3, 80 mM NaNO3, 35 mM KNO3, 10 mM Mg(NO3)2, 0.1% Triton X-100, 10% glycerol, 0.1% BSA, 0.01% Tween 20, pH 7.5, 37 C; EMSA: 35 nM DNA in …
[3] = tested on: CcpA2CS (Staphylococcus aureus Newman); experiment: BLI; settings: BLI: 25 mM Tris-HNO3, 80 mM NaNO3, 35 mM KNO3, 10 mM Mg(NO3)2, 0.1% Triton X-100, 10% glycerol, 0.1% BSA, 0.01% Tween 20, pH 7.5, 37 C; EMSA: 35 nM DNA in …; remark: listed apart in the source
[4] = target: T1, CcpA (SaCcpA) (Staphylococcus aureus Newman) (UniProt P99175); experiment: EMSA; settings: BLI: 25 mM Tris-HNO3, 80 mM NaNO3, 35 mM KNO3, 10 mM Mg(NO3)2, 0.1% Triton X-100, 10% glycerol, 0.1% BSA, 0.01% Tween 20, pH 7.5, 37 C; EMSA: 35 nM DNA in …
T1 sequence: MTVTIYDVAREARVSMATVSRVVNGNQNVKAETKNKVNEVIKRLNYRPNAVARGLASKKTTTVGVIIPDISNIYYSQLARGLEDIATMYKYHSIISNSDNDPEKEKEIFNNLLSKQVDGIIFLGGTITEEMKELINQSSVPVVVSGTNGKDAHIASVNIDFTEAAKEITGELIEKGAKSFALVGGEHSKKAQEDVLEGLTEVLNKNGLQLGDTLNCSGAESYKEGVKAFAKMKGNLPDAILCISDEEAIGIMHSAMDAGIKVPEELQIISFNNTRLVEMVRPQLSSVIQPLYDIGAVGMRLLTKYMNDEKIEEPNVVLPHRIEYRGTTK

[5] = target: the molecule itself; experiment: SEC; size-exclusion chromatography of purified CcpA pre-incubated with Ag+ (0.6, 1.2, 2.0 molar equivalents; CcpA^2CS with 2.0)
[6] = target: the molecule itself; experiment: SEC; size-exclusion chromatography of purified CcpA without Ag+

biotinylated pckA promoter probe was tested, and the Kd [1] was 15.1 nM, the Kd [2] was 16.1 nM and the Kd [3] was 20.7 nM.

For “ACTCGTACCACCAGTCACTATAAAATGTTGTCCTTTCATCAATTAACCTTCCTTTTCAATTATATAGAATGCAATTTATCAACTTTACATAATTGAGACAAGTTGATTATCTTTCCTAATATATATACAATAATAAGAAAATATAACATACAAATCAAAAACTAAAGGGATGTGACGTTAATGAAACTCG (double strand) [proC probe]”, the binding [4] was “no binding”.

B1: Staphylococcus aureus catabolite control protein A (CcpA), wild type (natural protein, UniProt Q5HF38 1-329, looked up)
chain: T1 sequence
notes: catabolite control protein A (CcpA) of Staphylococcus aureus; has two cysteines, Cys216 and Cys242; Dimer by SEC without Ag+; written as the protomer for the rows of self-association; Host, tags and limits are in the ESI; also called SaCcpA; WT CcpA
For B1, the “stoichiometry N” value [5] was 4 and the “stoichiometry N” value [6] was 2.

B2: Staphylococcus aureus CcpA C216S mutant (natural protein)
chain: T1 sequence with C216S
B2 was tested, and the “stoichiometry N” value [5] was 4.

B3: Staphylococcus aureus CcpA C242S mutant (natural protein)
chain: T1 sequence with C242S
In the case of B3, the “stoichiometry N” value [5] is reported as 4.
